± gives the uncertainty stated by the source.
Test: self-splicing fitness, log relative to wild type (ln ratio); higher = more splicing; Tetrahymena group I intron in knt gene, E. coli kanamycin selection, DiMSum; sequences stand for … in CUCUCU…GGAGGGAAAAGUUAUCAGGCAUGCACCUGGUAGCUAGUCUUUAAACCAAUAGAUUGCAUCGGUUUAAAAGGCAAGACCGUCAAAUUGCGGGAAAGGGGUCAACAGCCGUUCAGUACCAAGUCUCAGGGGAAACUUUGAGAUGGCCUUGCAAAGGGUAUGGUAAUAAGCUGACGGACAUGGUCCUAACCACGCAGCCAAGUCCUAAGUCAACAGAUCUUCUGUUGAUAUGGAUGCAGUUCACAGACUAAAUGUCGGUCGGGGAAGAUGUAUUCUUCUCAUAAGAUAUAGUCGGACCUCUCCUUAAUGGGAGCUAGCGGAUGAAGUGAUGCAACACUGGAGCCGCUGGGAACUAAUUUGUAUGCGAAAGUAUAUUGAUUAGUUUUGGAGUACUCGUGGUCG
Summary of the method: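 Pooled colonies went to amplicon sequencing on an Illumina HiSeq 2500 after six replicate transformations. The plates were LB agar with 100 μg/mL carbenicillin, 50 μM IPTG and 0.2% rhamnose, with or without 25 μg/mL kanamycin, incubated overnight at 37°C or 30°C. The E. coli BL21(DE3) library had all eight P1ex-region intron nucleotides randomised, the intron placed in the knt kanamycin-resistance gene on pET-22b(+). DiMSum fitness is the error-weighted combination of replicate fold changes, kanamycin against none, normalised to wild type.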

| Sequence | self-splicing fitness (ln) (30 °C) | self-splicing fitness (ln) (37 °C) |
| --- | --- | --- |
| CUCAAGCAAUAUUACGGGGG | -4.01 ± 0.23 | -2.88 ± 0.2 |
| CUCAAGCAAUAUUACGUACU | -3.51 ± 0.22 | -1.29 ± 0.17 |
| CUCAAGCAAUAUUACGUCAG | -1.5 ± 0.077 | -0.908 ± 0.099 |
| CUCAAGCAAUAUUACGUCAU | -2.99 ± 0.14 | -2.55 ± 0.14 |
| CUCAAGCAAUAUUACGUCGG | -2.02 ± 0.1 | -1.27 ± 0.11 |
| CUCAAGCAAUAUUACGUCGU | -3.21 ± 0.15 | -1.12 ± 0.11 |
| CUCAAGCAAUAUUACGUCUU | -3.42 ± 0.21 | -2.06 ± 0.16 |
| CUCAAGCAAUAUUACGUGGG | -4.05 ± 0.17 | -2.85 ± 0.15 |
| CUCAAGCAAUAUUACGUUCG | -3.18 ± 0.18 | -3 ± 0.26 |
| CUCAAGCAAUAUUACGUUGU | -3.9 ± 0.36 | -2.89 ± 0.23 |
| CUCCAGCAAUAUUACGAAGU | -3.59 ± 0.16 | -2.98 ± 0.26 |
| CUCCAGCAAUAUUACGAAUU | -3.27 ± 0.18 | -2.18 ± 0.2 |
| CUCCAGCAAUAUUACGCAAC | -3.98 ± 0.43 | -3.13 ± 0.42 |
| CUCCAGCAAUAUUACGCGAA | -3.06 ± 0.14 | -1.77 ± 0.16 |
| CUCCAGCAAUAUUACGCGAU | -3.55 ± 0.13 | -2.24 ± 0.14 |
| CUCCAGCAAUAUUACGCUCU | -3.59 ± 0.31 | -3.04 ± 0.34 |
| CUCCAGCAAUAUUACGGAUA | -1.82 ± 0.11 | -0.962 ± 0.1 |
| CUCCAGCAAUAUUACGGGUA | -1.35 ± 0.067 | -1.11 ± 0.08 |
| CUCCAGCAAUAUUACGGGUG | -2.79 ± 0.097 | -1.53 ± 0.088 |
| CUCCAGCAAUAUUACGGUGC | -2.92 ± 0.17 | -2.27 ± 0.24 |
| CUCCAGCAAUAUUACGGUUG | -2.69 ± 0.097 | -1.01 ± 0.12 |
| CUCCAGCAAUAUUACGUACG | -1.82 ± 0.11 | -0.463 ± 0.12 |
| CUCCAGCAAUAUUACGUAGU | -3.75 ± 0.19 | -2.89 ± 0.22 |
| CUCCAGCAAUAUUACGUAUA | -3.54 ± 0.23 | -0.63 ± 0.16 |
| CUCCAGCAAUAUUACGUCUG | -3.51 ± 0.17 | -2.54 ± 0.18 |
| CUCGAGCAAUAUUACGAAAA | -1.93 ± 0.44 |  |
| CUCGAGCAAUAUUACGAAGG | -2.2 ± 0.27 | -1.38 ± 0.41 |

| Sequence | self-splicing fitness (ln) (30 °C) | self-splicing fitness (ln) (37 °C) |
| --- | --- | --- |
| CUCGAGCAAUAUUACGACCA | -3.07 ± 0.26 | -2.22 ± 0.49 |
| CUCGAGCAAUAUUACGACCU | -3.42 ± 0.25 | -3.53 ± 0.37 |
| CUCGAGCAAUAUUACGACUA | -3.02 ± 0.33 | -0.507 ± 0.21 |
| CUCGAGCAAUAUUACGAGUG | -1.7 ± 0.1 | -1.47 ± 0.12 |
| CUCGAGCAAUAUUACGAUAU | -4.2 ± 0.31 | -1.91 ± 0.25 |
| CUCGAGCAAUAUUACGAUCU | -3.58 ± 0.25 | -3.53 ± 0.26 |
| CUCGAGCAAUAUUACGAUUU | -3.73 ± 0.2 | -2.91 ± 0.21 |
| CUCGAGCAAUAUUACGCACA | -4.64 ± 0.3 | -1.94 ± 0.19 |
| CUCGAGCAAUAUUACGCAUC | -3.3 ± 0.22 | -2.49 ± 0.3 |
| CUCGAGCAAUAUUACGCAUU | -3.59 ± 0.3 |  |
| CUCGAGCAAUAUUACGCUAG | -4.42 ± 0.39 | -2.52 ± 0.32 |
| CUCGAGCAAUAUUACGGAAG | -3.56 ± 0.2 | -1.32 ± 0.13 |
| CUCGAGCAAUAUUACGGAAU | -3.24 ± 0.2 | -3.23 ± 0.38 |
| CUCGAGCAAUAUUACGGACC | -3.81 ± 0.37 | -2.52 ± 0.41 |
| CUCGAGCAAUAUUACGGCAA | -1.82 ± 0.32 | -2.31 ± 0.27 |
| CUCGAGCAAUAUUACGGCAC | -3.63 ± 0.25 | -2.16 ± 0.36 |
| CUCGAGCAAUAUUACGGCAG | -1.71 ± 0.13 | -1.03 ± 0.15 |
| CUCGAGCAAUAUUACGGCAU | -2.71 ± 0.19 | -3.09 ± 0.37 |
| CUCGAGCAAUAUUACGGCGG | -1.2 ± 0.12 | -0.858 ± 0.2 |
| CUCGAGCAAUAUUACGGGGC | -3.41 ± 0.18 | -1.51 ± 0.16 |
| CUCGAGCAAUAUUACGGUCU | -3.02 ± 0.15 | -2.11 ± 0.17 |
| CUCGAGCAAUAUUACGGUUG | -3.73 ± 0.13 | -2.07 ± 0.13 |
| CUCGAGCAAUAUUACGUACC | -2.32 ± 0.26 | -0.911 ± 0.39 |
| CUCGAGCAAUAUUACGUCCG | -3.41 ± 0.18 | -3.68 ± 0.42 |
| CUCGAGCAAUAUUACGUCUA | -1.79 ± 0.24 | -2.43 ± 0.31 |
| CUCGAGCAAUAUUACGUGUG | -2.74 ± 0.12 | -1.27 ± 0.095 |
| CUCGAGCAAUAUUACGUUAC |  | -2.22 ± 0.43 |

| Sequence | self-splicing fitness (ln) (30 °C) | self-splicing fitness (ln) (37 °C) |
| --- | --- | --- |
| CUCUAGCAAUAUUACGAAGG | -2.01 ± 0.38 | -1.16 ± 0.32 |
| CUCUAGCAAUAUUACGAAUC |  | -3.69 ± 0.39 |
| CUCUAGCAAUAUUACGACAC |  | -2.49 ± 0.25 |
| CUCUAGCAAUAUUACGAUGG | -3.61 ± 0.19 | -1.91 ± 0.14 |
| CUCUAGCAAUAUUACGCACG | -2.45 ± 0.17 | -1.95 ± 0.23 |
| CUCUAGCAAUAUUACGCCGU | -2.12 ± 0.27 | -3.98 ± 0.39 |
| CUCUAGCAAUAUUACGCCUU | -1.58 ± 0.18 |  |
| CUCUAGCAAUAUUACGCUCC |  | -1.03 ± 0.36 |
| CUCUAGCAAUAUUACGCUUC | -2.62 ± 0.27 | -2.39 ± 0.34 |
| CUCUAGCAAUAUUACGGAGU | -3.04 ± 0.29 | -2.61 ± 0.25 |
| CUCUAGCAAUAUUACGGUGG | -2.88 ± 0.15 | -2.48 ± 0.21 |
| CUCUAGCAAUAUUACGUAGU | -4.1 ± 0.26 | -4.45 ± 0.36 |
| CUCUAGCAAUAUUACGUCUA | -2.31 ± 0.25 | -2.88 ± 0.24 |
| CUCUAGCAAUAUUACGUGAA | -3.77 ± 0.21 | -3.07 ± 0.25 |
| CUCUAGCAAUAUUACGUGAC | -4.2 ± 0.26 | -1.68 ± 0.17 |
| CUCUAGCAAUAUUACGUGCG | -2.61 ± 0.22 | -3.7 ± 0.3 |
| CUCUAGCAAUAUUACGUUAU | -3.92 ± 0.4 | -2.16 ± 0.25 |
| CUGAAGCAAUAUUACGAAGG | -0.457 ± 0.093 | -1.38 ± 0.14 |
| CUGAAGCAAUAUUACGACUA | -1.29 ± 0.16 | -0.875 ± 0.21 |
| CUGAAGCAAUAUUACGAUAC | -2.44 ± 0.32 | -1.94 ± 0.36 |
| CUGAAGCAAUAUUACGAUCU | -3.3 ± 0.16 | -3.2 ± 0.28 |
| CUGAAGCAAUAUUACGAUGC | -3.46 ± 0.21 | -2.86 ± 0.33 |
| CUGAAGCAAUAUUACGCAAC |  | -2.22 ± 0.35 |
| CUGAAGCAAUAUUACGCAUG | -0.485 ± 0.063 | 0.071 ± 0.1 |
| CUGAAGCAAUAUUACGCCCA | -2.13 ± 0.34 |  |

From the supplement of paper PMC7877785
